Measurements: patent US20120208216A1

Experiments:
[1] = target: antibody against the amyloid β-A4 peptide (anti-Aβ antibody); test: sandwich ELISA, Bi- and Dig-M-R10Z8E9 as capture and detection; analyte 50.00 ng/ml in cynomolgus serum
[2] = target: antibody against the IL13 receptor α1 protein (anti-IL13Rα1 antibody); test: as above
[3] = target: antibody against the IL-1R receptor (anti-IL1R antibody); test: as above
[4] = target: antibody against the IL-6 receptor (anti-IL6R antibody); test: as above
[5] = target: marmoset IgG (marmoset serum); test: SPR (BIAcore T100), mAb captured by anti-mouse Fc, serum 1:100; signal at 80 s
[6] = target: chimpanzee immunoglobulin of class G (chimpanzee serum); test: as above
[7] = target: human immunoglobulin of class G (human serum); test: as above
[8] = target: dog IgG (dog serum); test: as above
[9] = target: cynomolgus IgG (cynomolgus serum); test: as above
[10] = target: baboon IgG (baboon serum); test: as above
[11] = target: Rhesus-monkey IgG (Rhesus-monkey serum); test: as above
[12] = target: antibody against the amyloid β-A4 peptide (anti-Aβ antibody); test: sandwich ELISA, Bi- and Dig-M-R10Z8E9 as capture and detection; 0.00 ng/ml analyte in cynomolgus serum (blank)
[13] = target: antibody against the IL13 receptor α1 protein (anti-IL13Rα1 antibody); test: as above
[14] = target: antibody against the IL-1R receptor (anti-IL1R antibody); test: as above
[15] = target: antibody against the IL-6 receptor (anti-IL6R antibody); test: as above
[16] = target: antibody against the amyloid β-A4 peptide (anti-Aβ antibody); test: sandwich ELISA, Bi- and Dig-M-R10Z8E9 as capture and detection; analyte 6.25 ng/ml in cynomolgus serum
[17] = target: antibody against the IL13 receptor α1 protein (anti-IL13Rα1 antibody); test: as above
[18] = target: antibody against the IL-1R receptor (anti-IL1R antibody); test: as above
[19] = target: antibody against the IL-6 receptor (anti-IL6R antibody); test: as above
[20] = target: antibody against the amyloid β-A4 peptide (anti-Aβ antibody); test: sandwich ELISA, Bi- and Dig-M-R10Z8E9 as capture and detection; analyte 100.00 ng/ml in cynomolgus serum
[21] = target: antibody against the IL13 receptor α1 protein (anti-IL13Rα1 antibody); test: as above
[22] = target: antibody against the IL-1R receptor (anti-IL1R antibody); test: as above
[23] = target: antibody against the IL-6 receptor (anti-IL6R antibody); test: as above
[24] = target: antibody against the amyloid β-A4 peptide (anti-Aβ antibody); test: sandwich ELISA, Bi- and Dig-M-R10Z8E9 as capture and detection; analyte 1.56 ng/ml in cynomolgus serum
[25] = target: antibody against the IL13 receptor α1 protein (anti-IL13Rα1 antibody); test: as above
[26] = target: antibody against the IL-1R receptor (anti-IL1R antibody); test: as above
[27] = target: antibody against the IL-6 receptor (anti-IL6R antibody); test: as above
[28] = target: antibody against the amyloid β-A4 peptide (anti-Aβ antibody); test: sandwich ELISA, Bi- and Dig-M-R10Z8E9 as capture and detection; analyte 25.00 ng/ml in cynomolgus serum
[29] = target: antibody against the IL13 receptor α1 protein (anti-IL13Rα1 antibody); test: as above
[30] = target: antibody against the IL-1R receptor (anti-IL1R antibody); test: as above
[31] = target: antibody against the IL-6 receptor (anti-IL6R antibody); test: as above
[32] = target: marmoset IgG (marmoset serum); test: SPR (BIAcore T100), mAb captured by anti-mouse Fc, serum 1:100; 1:1 Langmuir, serum IgG assumed 15 mg/ml
[33] = target: chimpanzee immunoglobulin of class G (chimpanzee serum); test: as above
[34] = target: human immunoglobulin of class G (human serum); test: as above
[35] = target: dog IgG (dog serum); test: as above
[36] = target: antibody against the amyloid β-A4 peptide (anti-Aβ antibody); test: sandwich ELISA, Bi- and Dig-M-R10Z8E9 as capture and detection; analyte 12.50 ng/ml in cynomolgus serum
[37] = target: antibody against the IL13 receptor α1 protein (anti-IL13Rα1 antibody); test: as above
[38] = target: antibody against the IL-1R receptor (anti-IL1R antibody); test: as above
[39] = target: antibody against the IL-6 receptor (anti-IL6R antibody); test: as above
[40] = target: antibody against the amyloid β-A4 peptide (anti-Aβ antibody); test: sandwich ELISA, Bi- and Dig-M-R10Z8E9 as capture and detection; analyte 3.13 ng/ml in cynomolgus serum
[41] = target: antibody against the IL13 receptor α1 protein (anti-IL13Rα1 antibody); test: as above
[42] = target: antibody against the IL-1R receptor (anti-IL1R antibody); test: as above
[43] = target: antibody against the IL-6 receptor (anti-IL6R antibody); test: as above

OD [1]: 1.71 OD | OD [2]: 1.67 OD | OD [3]: 1.52 OD | OD [4]: 1.56 OD | Bound RU [5]: 18.9 RU | Bound RU [6]: 159 RU | Bound RU [7]: 151 RU | Bound RU [8]: 35.5 RU | Bound RU [9]: -1.4 RU | Bound RU [10]: -1.5 RU | Bound RU [11]: -1.9 RU | OD [12]: 0.023 OD | OD [13]: 0.022 OD | OD [14]: 0.024 OD | OD [15]: 0.024 OD | OD [16]: 0.482 OD | OD [17]: 0.408 OD | OD [18]: 0.276 OD | OD [19]: 0.348 OD | OD [20]: 1.93 OD | OD [21]: 1.97 OD | OD [22]: 1.88 OD | OD [23]: 1.82 OD | OD [24]: 0.139 OD | OD [25]: 0.119 OD | OD [26]: 0.085 OD | OD [27]: 0.105 OD | OD [28]: 1.31 OD | OD [29]: 1.23 OD | OD [30]: 0.98 OD | OD [31]: 1.08 OD | Kd [32]: 204 nM | Kd [33]: 0.221 nM | Kd [34]: 0.177 nM | Kd [35]: 31.7 nM | OD [36]: 0.881 OD | OD [37]: 0.772 OD | OD [38]: 0.546 OD | OD [39]: 0.664 OD | OD [40]: 0.264 OD | OD [41]: 0.226 OD | OD [42]: 0.153 OD | OD [43]: 0.19 OD
Substance: MAB<h-Fc gamma>M-R10Z8E9 (antibody)
